Results on 41 sequences are retold here after the nanobody polyreactivity screen of Harvey et al. (2022).

The nature of this series: yeast display, Sf9 membrane polyspecificity reagent, FACS + sequencing; frameworks hold sequencing errors. In outline:
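A synthetic nanobody library was expressed on Saccharomyces cerevisiae BJ5465 by galactose induction for 36–48 hours. The library was stained for 1 hour at 4 °C with 10% biotinylated, detergent-solubilized Sf9 membrane reagent and enriched with streptavidin microbeads before FACS. Low and high (top ~1%) gates were set on anti-HA fluorescence for expression and streptavidin fluorescence for reagent binding, and each polyreactivity label reflects the gate of origin.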
Consider “QVQLVESGGGLVQAGGSLRLSCAASGFTITYYVMGWYRQAPGKERELVAAISSGGRTYYADSVKGRFTISRDNAKNTVYLQMNSLKPEDTAVYYCARAISIYPGFGYWGQGTQVTVSS”, for which the “polyreactivity (PSR sort gate)” value is “high polyreactivity”. The same measure for “QVQLVESGGGLVQAGGSLRLSCAASGFTIVHYAMGWYRQAPGKERELVAAITWNGGRTYYADSVKGRFTISRDTAKNTVYLQMNSLKPEDTAVYYCAVRYKSWYGFNYWGQGTQVTVSS”: “high polyreactivity”; for “QVQLVESGGGLVQAGGSLRLSCAASGFTIYIYVMGWYRQAPGKETELVADITWSGGRTYYADSVKGRFTISRDNAKNTVYLQMNSLKPEDTAVYYCAASYPGLSYHKYEYWGQGTQVTVSS”: “high polyreactivity”. Consider “QVQLVESGGGLVQAGGSLRLSCAASGFTIYWYAMGWYRQAPGKERELVAAITRSGSSTYYADSVKGRFTISRDNAKNTVYVQMNSLKPEDTAVYYSAALPYTPYYDAYDYWGQGTQVTVSS”, for which the “polyreactivity (PSR sort gate)” value was “high polyreactivity”. With “QVQLVESGGGLVQAGGSLRLSCAASGFTIYYYAMAWYRQAPGKERELVAAISYSGGSTYYADSVKGRFTISRDNAKNTVYLQMNSLKPEDTAVYYCAVDWYGSYGYGGSQKSDYWGLGTQVTVSS” the entry was “high polyreactivity”; with “QVQLVESGGGLVQAGGSLRLSCAASGFTIYYYAMGWYRQAPGKERELVASISWRGGSTYYADSVKGRFTISRDNAKNTDYIQINSLKAEDTAVYYCAAQKRGSPGNRRDYWGQGTQVTVSS”, “high polyreactivity”. The same measure for “QVQLVESGGGLVQAGGSLRLSCAASGFTIYYYAMGWYRQAPGKVRELVASITSGGSTYYADSVKGRFTISRDNAMNTVYLQMNSLKPEDTAVYYCAQTRFHSKEGDYWGQGTQVTVSS”: “low polyreactivity”.

Regarding “QVQLVESGGGLVQAGGSLRLSCAASGFTLAFYGMGWYRQAPGKERELVAAISWSGDSTYYADSVKGRFTISRDNAKNTVYLQMNSLKPEDTAVYYCAKPKRRFYDRPSDYWGQGTQVTVSS”, the “polyreactivity (PSR sort gate)” value is “high polyreactivity”. As for “QVQLVESGGGLVQAGGSLRLSCAASGFTLALNAMGWYRQAPGKERELVAVINSGGSTNYADSVKGRFTISRDNAKNTVYLQMNSLKPEDTAVYYYWGQGTQVTESS”, the “polyreactivity (PSR sort gate)” value was “low polyreactivity”. As to “QVQLVESGGGLVQAGGSLRLSCAASGFTLAWYAMGWYRQAPGKERELVATIRSGGNTYYADSVKGRFTISRDNAKNTVYLQMNSLKPEDTAVYYCAKTHTYPRYGRGYDYWGQGTQVTVSS”, the “polyreactivity (PSR sort gate)” value is listed as “high polyreactivity”. With “QVQLVESGGGLVQAGGSLRLSCAASGFTLDWYVMGWYRQAPGKDRELVAAISSSGGRTYYADSVKGRFTISRDNAKNTVYLQMNSLKPEDTAVYYCAARNKYGGYPYGYDYWGQGTQVTVSS” the entry was “high polyreactivity”; with “QVQLVESGGGLVQAGGSLRLSCAASGFTLDWYVMGWYRQAPGKERELVAAISSSGGRTYYADSVKGRFTISRDNAKNTVSLQLNSLKPEDTAVYYCAARNKYGGYPYGYDYWGQGTQVTVSS”, “high polyreactivity”. The same measure for “QVQLVESGGGLVQAGGSLRLSCAASGFTLDWYVMGWYRQAPGKERELVAAISSSGGRTYYADSVKGRFTISRDNAKNTVYLQMNSLKPEDPAVYYCAARNKYGGYPYGYDYWGQGTQVTVSS”: “high polyreactivity”.

In the case of “QVQLVESGGGLVQAGGSLRLSCAASGFTLEFYAMGWYRQAPGKERELVAAISKSGGSTYYADSVKGRFTISRDNAKNTVYLQMNSLKPEDTAVYYCAKVNSYGPVPDRYDYWGQGTQVTVSS”, the “polyreactivity (PSR sort gate)” value was “high polyreactivity”. Regarding “QVQLVESGGGLVQAGGSLRLSCAASGFTLEFYAMGWYRQAPGKERELVASISSGGRTNYADSVKGRFTISRDNAKNTVFLQMNSLKPEDTAVYYCAAEYRSWGRYRYRFNYWGQGTQVTVSS”, the “polyreactivity (PSR sort gate)” value is listed as “high polyreactivity”.

On to “QVQLVESGGGLVQAGGSLRLSCAASGFTLENYAMGWYRQAPGKARELVAAINCRGSRTYYADSVKGRFTISRDNAMNTVYLQMNSLKPEDTAVYYCARDKRTNSGFYYWGQGTQVTVSS”, for which the “polyreactivity (PSR sort gate)” value is “high polyreactivity”.

In the case of “QVQLVESGGGLVQAGGSLRLSCAASGFTLGFNARGWYRQAPGKERELVAAITIGGTTYYADSVKGRFTISRDNAKNTVYLQMNSLKPEDTAVYYCAAARFLWFYVYTTRVQRYGYWGQGTQVTVSS”, the “polyreactivity (PSR sort gate)” value is listed as “low polyreactivity”. The same measure for “QVQLVESGGGLVQAGGSLRLSCAASGFTLGFYAMAWYRPAPGKERELVAAINWRGGSTYYADSVKGRFTISRYNAKNTVYLQMNSLKPADTAVYYSNRVYRPSLYDYWGQGTQVSVSS”: “high polyreactivity”; for “QVQLVESGGGLVQAGGSLRLSCAASGFTLGLYAMGWYRQAPGKERELVAAITAGGDSTDYADSVKGRFTISRDNAKNTVYLQMNSLKPEDTAVYYCAAPSYWLYYYILDSSDYWGQGTQVTVSS”: “high polyreactivity”. For “QVQLVESGGGLVQAGGSLRLSCAASGFTLGSKVMGWYRQAHGKERELVAGISQSGGRTFYADSVKGRFTISRDNAKNTVYLQMNSLKPEDTAVYYCAAGYYPYWGQGTLVTVSS”, the “polyreactivity (PSR sort gate)” value is listed as “low polyreactivity”.

Turning to “QVQLVESGGGLVQAGGSLRLSCAASGFTLGYNAMGWYRQAPGTERELVAAITRSGGSTYYADSVKGRFTISRDNAKNTVYLQMNSLKPEDTAVYYCNARSVYGSKQEEYWGQGTQVTVSS”, the “polyreactivity (PSR sort gate)” value is listed as “high polyreactivity”. With “QVQLVESGGGLVQAGGSLRLSCAASGFTLHVYAMGWYRQAPGKERELVAAISTGGNTNYADSVKGRFTISRDNAKNTVYLQMNSLKAEDTAVYYCNARYTSRRSRRPYYEWGQGTQVTVSS” the entry was “high polyreactivity”; with “QVQLVESGGGLVQAGGSLRLSCAASGFTLIDYAMGWYRQAPGKERELVAAISGSGGRTYYADSVKGRFTISRDNAKNTVYLQMNSLKPEDTAVYYCAAGRRHVYKRRRYDYWGQGTQVTVSS”, “high polyreactivity”. With “QVQLVESGGGLVQAGGSLRLSCAASGFTLLTYVMGWYRQAPGKERELVAAISKSGSRTYYADSVKGRFTISRDNAKNTVYVQMNSLKPEDTPVYYCAADTSAYRYDYWGQGTQVTVSS” the entry was “high polyreactivity”; with “QVQLVESGGGLVQAGGSLRLSCAASGFTLPLYAMGWYRQAPGKERELVAAISSGGGRTYYADSVKGRFTISRDNAKNTVYLQMNSLKPEDTAVYYCNVDRWWLGWYKFNYWGQGTQVTVSS”, “high polyreactivity”.

On to “QVQLVESGGGLVQAGGSLRLSCAASGFTLPVYAMGWYRQAPGKERELVARITWSAGRTYYADSVKGRFTISRDNAKNTVYLQMNSLKPEDTAVYYCAAGPVSQQHSPGPHDYWGQGTQVTVSS”, for which the “polyreactivity (PSR sort gate)” value is listed as “high polyreactivity”.

For the sequence “QVQLVESGGGLVQAGGSLRLSCAASGFTLQGYAMGWYRQAPGKERELVAAIRWIGTSTYYADSVKGRFTISRDNAKNTVYLQMNSLKPEDTAVYYCAAVVRRVRPEGSYNRWGHDYWGQGTQVTVSS”, the “polyreactivity (PSR sort gate)” value is “high polyreactivity”. Take “QVQLVESGGGLVQAGGSLRLSCAASGFTLQSNAMGWFRQATGKERELVAAISFRGGSTYYADSVKGRFTISRDNAKNTVYLQMNSLKPEDTAVYYCAADFYFHSAYNYGYWGQGTQVTVSS”: the “polyreactivity (PSR sort gate)” value is recorded as “low polyreactivity”. With “QVQLVESGGGLVQAGGSLRLSCAASGFTLRKYVMGWYRQAPGKERELVAAITSSASSTYYADTVKGRFTISRDNAKNTVYLQMNSMKPEDTAVYYCAARGRPYRGSYYWGQGTQVTVSS” the entry was “high polyreactivity”; with “QVQLVESGGGLVQAGGSLRLSCAASGFTLRSYTMGWYRQAPGKERELVAAITSRGTSTYYADSVKGRFTISRDNAKNTVYLQMNSLKPEDTAVYYCADPIYNGYASWQVYYWGQGTQVTVSS”, “high polyreactivity”; with “QVQLVESGGGLVQAGGSLRLSCAASGFTLRYYAMGWYRQAPGKERELVATINRSGASTYYADSVKGRFTISRDNAKNTVYLQMNRLKPEDTAVYYCNTATSRAYRYDYWGQGTQVTVSS”, “high polyreactivity”.

Take “QVQLVESGGGLVQAGGSLRLSCAASGFTLSRYAMGWYRQAPGKERELVAAISSSGDSTYYADSVKGRFTISRDNAKNTVYLQMNSLKPEDTAVYYCNVYTYHRYDYWGQGTQVTVSS”: the “polyreactivity (PSR sort gate)” value is listed as “high polyreactivity”. For the sequence “QVQLVESGGGLVQAGGSLRLSCAASGFTLSYYAMGWYRQAPGKERELVASISAIGGITYYADSVKGRFTISRDNAKNTVYLQMNSLKPEDTAVYYCARQGRRYRRFDSWGQGTKVTVSS”, the “polyreactivity (PSR sort gate)” value is given as “high polyreactivity”. With “QVQLVESGGGLVQAGGSLRLSCAASGFTLWLNAMGWYRQAPGKERELVAAITTSDDGTYYADSVKGRFTISRDNAKNSVYLQMNSLKPEDTAVYYCAADYYSVLYDYWGQGTQVTVSS” the entry was “low polyreactivity”. With “QVQLVESGGGLVQAGGSLRLSCAASGFTLYFYVMGWYRQAPGKERELVAAITSGGSTYYADSVKGRFTISRDNAKNTVYLQMNSLKPEDTAVYYCAARRSPSRRYLGNYWGQGTQVTVSS” the entry was “high polyreactivity”; with “QVQLVESGGGLVQAGGSLRLSCAASGFTLYHYAMGWYRQAPGKERELVAAITTSGSRTYYADSVKGRFTISRDNAKNTVYLQMNSLKPEDTAVYYCNAVASSTEYDYWGQGTQVTVSS”, “high polyreactivity”; with “QVQLVESGGGLVQAGGSLRLSCAASGFTLYPYGMGWYRQAAGKERELVASISSRVGRTYYADSVKGRFTISRDNAKNTVYLQMNSLKPEDTAVYYCAASRLVRYQSRYASWGQGTQVTVSS”, “high polyreactivity”.

For the sequence “QVQLVESGGGLVQAGGSLRLSCAASGFTLYSNTMGWYRQATGKERELVAAINYSGGSTYYADSVKGRFTISRDNAKNTVYLQMNSLKPEDTPVYYCATDLHWLVTKYGYWGQGTQVTVSS”, the “polyreactivity (PSR sort gate)” value was “low polyreactivity”. With “QVQLVESGGGLVQAGGSLRLSCAASGFTLYSYAMGWYRQAPGKERELVAAITRSGGITYYADSVKGRFTISRDNAKNTVYLQMNSLKPEDTAVYYCNAYRGGLSSEHYYWGQGTQVTVSS” the entry was “high polyreactivity”; with “QVQLVESGGGLVQAGGSLRLSCAASGFTLYSYVMGWYRQAPGKERELVAAISRSGVSTHYADSVKGRFTISRDNAKNTVYLQMNSLKPEDTAVYYCNKVYYYVGTLDYWGQGTQVTVSS”, “high polyreactivity”; with “QVQLVESGGGLVQAGGSLRLSCAASGFTNAYYAMGWYRQAPGKEREFVASITSGGSTYYADSVKGRFTISRDNAKNTVYLQMNSLKPEDTAVYYCAARSPFYSYTPGYEYWGQGTQVTVSS”, “high polyreactivity”.
